The labels stand for the following.
B1: RAS guanyl-releasing protein 1, residues 539 to 593; numbered along this chain, O95267 (parent)
chain: GFPHNFQETTYLKPTFCDNCAGFLWGVIKQGYRCKDCGMNCHKQCKDLVVFECKK

± gives the uncertainty stated by the source.

In the series the parent is B1. Put plainly: abundance fitness (aPCA) (normalised: wild type 0, dead -1); higher = more abundant; growth selection in yeast, the domain comes from the species named. Particulars: Homo sapiens.
Turning to GFPHNFQETTYLKPTFCDNCAPFLWGVIKQGYRCKDCGMNCHKQCKDLVVFECKK, the abundance fitness is -0.595 ± 0.19. As to GFPHNFQETTYLKPTFCDNCAMFLWGVIKQGYRCKDCGMNCHKQCKDLVVFECKK, the abundance fitness was 0.105 ± 0.072. For GFPHNFQETTYLKPTFCDNCAFFLWGVIKQGYRCKDCGMNCHKQCKDLVVFECKK, the abundance fitness is -0.386 ± 0.14. GFPHNFQETTYLKPTFCDNCAYFLWGVIKQGYRCKDCGMNCHKQCKDLVVFECKK: the abundance fitness is -0.317 ± 0.13.

As to GFPHNFQETTYLKPTFCDNCAKFLWGVIKQGYRCKDCGMNCHKQCKDLVVFECKK, the abundance fitness is -0.278 ± 0.15. The value for GFPHNFQETTYLKPTFCDNCAVFLWGVIKQGYRCKDCGMNCHKQCKDLVVFECKK was -0.482 ± 0.12; that for GFPHNFQETTYLKPTFCDNCAIFLWGVIKQGYRCKDCGMNCHKQCKDLVVFECKK was -0.154 ± 0.13; that for GFPHNFQETTYLKPTFCDNCACFLWGVIKQGYRCKDCGMNCHKQCKDLVVFECKK was 0.147 ± 0.088. Consider GFPHNFQETTYLKPTFCDNCARFLWGVIKQGYRCKDCGMNCHKQCKDLVVFECKK, for which the abundance fitness is -0.082 ± 0.047. As for GFPHNFQETTYLKPTFCDNCAHFLWGVIKQGYRCKDCGMNCHKQCKDLVVFECKK, the figure is -0.078 ± 0.11; as for GFPHNFQETTYLKPTFCDNCAQFLWGVIKQGYRCKDCGMNCHKQCKDLVVFECKK, -0.146 ± 0.11. Take GFPHNFQETTYLKPTFCDNCANFLWGVIKQGYRCKDCGMNCHKQCKDLVVFECKK: the abundance fitness was -0.298 ± 0.23.

Turning to GFPHNFQETTYLKPTFCDNCASFLWGVIKQGYRCKDCGMNCHKQCKDLVVFECKK, the abundance fitness was -0.066 ± 0.057. The value for GFPHNFQETTYLKPTFCDNCADFLWGVIKQGYRCKDCGMNCHKQCKDLVVFECKK was -0.189 ± 0.079. The value for GFPHNFQETTYLKPTFCDNCAGRLWGVIKQGYRCKDCGMNCHKQCKDLVVFECKK was -0.242 ± 0.088; that for GFPHNFQETTYLKPTFCDNCAGILWGVIKQGYRCKDCGMNCHKQCKDLVVFECKK was -0.032 ± 0.14; that for GFPHNFQETTYLKPTFCDNCAGVLWGVIKQGYRCKDCGMNCHKQCKDLVVFECKK was -0.132 ± 0.084. As for GFPHNFQETTYLKPTFCDNCAGCLWGVIKQGYRCKDCGMNCHKQCKDLVVFECKK, the figure is -0.166 ± 0.16; as for GFPHNFQETTYLKPTFCDNCAGYLWGVIKQGYRCKDCGMNCHKQCKDLVVFECKK, -0.074 ± 0.12; as for GFPHNFQETTYLKPTFCDNCAGHLWGVIKQGYRCKDCGMNCHKQCKDLVVFECKK, -0.706 ± 0.2. As for GFPHNFQETTYLKPTFCDNCAGGLWGVIKQGYRCKDCGMNCHKQCKDLVVFECKK, the abundance fitness was -0.328 ± 0.062. As for GFPHNFQETTYLKPTFCDNCAGSLWGVIKQGYRCKDCGMNCHKQCKDLVVFECKK, the figure is -0.431 ± 0.072. As for GFPHNFQETTYLKPTFCDNCAGNLWGVIKQGYRCKDCGMNCHKQCKDLVVFECKK, the figure is -0.628 ± 0.16; as for GFPHNFQETTYLKPTFCDNCAGALWGVIKQGYRCKDCGMNCHKQCKDLVVFECKK, -0.433 ± 0.13; as for GFPHNFQETTYLKPTFCDNCAGELWGVIKQGYRCKDCGMNCHKQCKDLVVFECKK, -0.333 ± 0.12.

For GFPHNFQETTYLKPTFCDNCAGLLWGVIKQGYRCKDCGMNCHKQCKDLVVFECKK, the abundance fitness is 0.105 ± 0.086. The value for GFPHNFQETTYLKPTFCDNCAGPLWGVIKQGYRCKDCGMNCHKQCKDLVVFECKK was -0.409 ± 0.22; that for GFPHNFQETTYLKPTFCDNCAGMLWGVIKQGYRCKDCGMNCHKQCKDLVVFECKK was -0.022 ± 0.089; that for GFPHNFQETTYLKPTFCDNCAGKLWGVIKQGYRCKDCGMNCHKQCKDLVVFECKK was -0.297 ± 0.1. The value for GFPHNFQETTYLKPTFCDNCAGWLWGVIKQGYRCKDCGMNCHKQCKDLVVFECKK was 0.014 ± 0.09; that for GFPHNFQETTYLKPTFCDNCAGDLWGVIKQGYRCKDCGMNCHKQCKDLVVFECKK was -0.423 ± 0.11; that for GFPHNFQETTYLKPTFCDNCAGQLWGVIKQGYRCKDCGMNCHKQCKDLVVFECKK was -0.204 ± 0.12. In the case of GFPHNFQETTYLKPTFCDNCAGTLWGVIKQGYRCKDCGMNCHKQCKDLVVFECKK, the abundance fitness is -0.503 ± 0.14. The value for GFPHNFQETTYLKPTFCDNCEGFLWGVIKQGYRCKDCGMNCHKQCKDLVVFECKK was -0.041 ± 0.11; that for GFPHNFQETTYLKPTFCDNCGGFLWGVIKQGYRCKDCGMNCHKQCKDLVVFECKK was -0.084 ± 0.054; that for GFPHNFQETTYLKPTFCDNCRGFLWGVIKQGYRCKDCGMNCHKQCKDLVVFECKK was 0.053 ± 0.078. For GFPHNFQETTYLKPTFCDNCIGFLWGVIKQGYRCKDCGMNCHKQCKDLVVFECKK, the abundance fitness worked out at 0.04 ± 0.12. The value for GFPHNFQETTYLKPTFCDNCVGFLWGVIKQGYRCKDCGMNCHKQCKDLVVFECKK was -0.071 ± 0.085; that for GFPHNFQETTYLKPTFCDNCFGFLWGVIKQGYRCKDCGMNCHKQCKDLVVFECKK was -0.074 ± 0.14; that for GFPHNFQETTYLKPTFCDNCYGFLWGVIKQGYRCKDCGMNCHKQCKDLVVFECKK was 0.13 ± 0.1. For GFPHNFQETTYLKPTFCDNCPGFLWGVIKQGYRCKDCGMNCHKQCKDLVVFECKK, the abundance fitness is -0.116 ± 0.078. With GFPHNFQETTYLKPTFCDNCHGFLWGVIKQGYRCKDCGMNCHKQCKDLVVFECKK, the abundance fitness is -0.082 ± 0.13. The value for GFPHNFQETTYLKPTFCDNCCGFLWGVIKQGYRCKDCGMNCHKQCKDLVVFECKK was -0.009 ± 0.046.

GFPHNFQETTYLKPTFCDNCTGFLWGVIKQGYRCKDCGMNCHKQCKDLVVFECKK: the abundance fitness amounted to 0.043 ± 0.11.

With GFPHNFQETTYLKPTFCDNCWGFLWGVIKQGYRCKDCGMNCHKQCKDLVVFECKK, the abundance fitness is -0.222 ± 0.13. As for GFPHNFQETTYLKPTFCDNCQGFLWGVIKQGYRCKDCGMNCHKQCKDLVVFECKK, the figure is -0.311 ± 0.15; as for GFPHNFQETTYLKPTFCDNCMGFLWGVIKQGYRCKDCGMNCHKQCKDLVVFECKK, -0.162 ± 0.26. As to GFPHNFQETTYLKPTFCDNCKGFLWGVIKQGYRCKDCGMNCHKQCKDLVVFECKK, the abundance fitness came to 0.019 ± 0.1.

The values are drawn from the Human Domainome abundance scans (Beltran et al. 2025).
